Test results published in publication PMC7815493 (Redox Biology, 2021).

Key:
[1] = biological target: the molecule itself; experiment: non-reducing SDS-PAGE and immunoblot
[2] = biological target: T1, HMGB1:LK:CFP, P09429; experiment: FRET or BRET; details: remark: other sources report otherwise
T1 chain: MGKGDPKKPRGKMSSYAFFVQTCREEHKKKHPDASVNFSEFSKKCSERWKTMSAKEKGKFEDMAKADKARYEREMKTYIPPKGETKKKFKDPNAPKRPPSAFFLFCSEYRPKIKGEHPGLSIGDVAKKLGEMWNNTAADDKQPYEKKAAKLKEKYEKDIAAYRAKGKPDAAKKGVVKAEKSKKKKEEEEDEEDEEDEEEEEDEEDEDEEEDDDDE

[3] = biological target: T2, Six His-tagged HMGB1 recombinant protein, P09429; details: remark: other sources report otherwise
T2 chain: T1 chain

[4] = biological target: T2, Six His-tagged HMGB1 recombinant …; experiment: MALDI-TOF MS; details: remark: other sources report otherwise

B1: HMGB1 box B (aa 88-162) (domain or fragment, UniProt P09429 88-162, looked up)
chain: KFKDPNAPKRPPSAFFLFCSEYRPKIKGEHPGLSIGDVAKKLGEMWNNTAADDKQPYEKKAAKLKEKYEKDIAAY
B1: binds [1].

B2: YFP:LK:HMGB1, P09429 1-215 (natural protein)
chain: T1 chain
B2 showed an FRET efficiency [2] of 17.1%.

B3: Six His-tagged HMGB1 recombinant protein, P09429 1-215 (natural protein)
chain: T1 chain
B3 showed a percent of molecules that are dimers [3] of 70% and a stoichiometry N [4] of 2.
